From the RNAGym collection of RNA variant scans (doi:10.1073/pnas.2313332121)
This sample holds only a part of the variants without activity.

B1: TPR 5TU (parent)
chain: GGAUCUUCUCGAUCUAACAAAAAAGACAAAUCUGCCACAAAGCUUGAGAGCAUCUUCGGAUGCAGAGGCGGCAGCCUUCGGUGGCGCGAUAGCGCCAACGUUCUCAACUAUGACACGCAAAACGCGUGCUCCGUUGAAUGGAGUUUAUCAUG

Variants of: B1
Assay: polymerase ribozyme fitness, log enrichment relative to wild type (log ratio); higher = more active; in vitro selection for triplet polymerase activity
In short: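 To select mutant libraries of each subunit of a heterodimeric triplet polymerase ribozyme, built by PCR and transcribed, each was annealed with a biotinylated primer, partner subunit and triplets, then incubated frozen at −7 °C. Extended constructs were gel-excised, captured on streptavidin beads and amplified by RT-PCR, in one round carried out in triplicate. Illumina sequencing of input and output libraries kept genotypes with ≥10 input reads and ≥1 read per output. Fitness is the base-2 logarithm of genotype enrichment relative to wild-type enrichment, from inverse-variance-weighted replicate averages.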

| Variant | polymerase ribozyme fitness (log ratio) |
| --- | --- |
| GGAUCUUCUCGAUCUAACAAAAAAGUCAAAUCUGCCACAAAGCUUGAGAGCAUCUUCGAAUGCAGAGGCGGCAGCCUUCGGUGGCGGGAUAGCGCCAACGUUCUCAACUAUGACACGCAAAACGCGUGCUCCGUUGAAUGGAGUUUAUCAUG | ≤ -4.2 |
| GGAUCUUCUCGAUCUAACAAAAAAGUCAAAUCUGCCACAAAUCAUGAGAGCAUCAUCGUAUGCAGAGGCGGCAGCCUUCGGUGGCGCGAUAGCGCCAACGUUGUCAACUAUGACACGCGUAACGCGUGCUCCGUUGAAUUGAGUUUAUCAUG | ≤ -4.2 |
| GGAUCUUCUCGAUCUAACAAAAAAGUCAAAUCUGCCACAAAGCUUGAGAGCAUCUUCGGAUGCAAUGGCGGCAGCCCUCGGUGGCGCGAUAGCGCUAACGUUCUCUUCUAUGACACGCAAAACGCGUGCUCUGUUGAAAGGACUUUAACAUG | ≤ -4.2 |
| GGAUCUUCUCGAUCUAACAAAAAAGUCAAAUCUGCCACAAAGCUUUAUAGCAUCUUCGGAUGCAGAGGCGGCAGCCUUCGUUCGCGCGAUAGCGCCAAGGUUCUCAACUAUGACACGCAAAACGCGUGCUCCGUUGAAUGGAGUUUAUCAUG | ≤ -4.2 |
| GGAUCUUCUCGAUCUAACAAAAAAGUCAAAUCUGCCACAAAGCUUCAGAGCAUCAUCGGAUGCAGAGGCGGCAGCCUUCGGUGGCGCGAUAGUGCCAACGUUAUCGACUAUGAAACGCAAAACGCGUGCUCCGUUGAAUGGAGUUUAUCAUG | ≤ -4.2 |
| GGAUCUUCUCGAUCUAACAAAAAAGUCAAAUCUGCCACAAAGCUUGAGAGCAUCUUCGGAUACAGAGGCGGCAGCCUUCGGUGGCGCGAUAGCGCCAACGUUCUCAACUAUGACACGCAAAACGCGUGCUCCGUUGAAUGGAGUUUAUCAUG | -1.51 |
| GGAUCUUCUCGAUCUAACAAAAAAGUCAAAUCUGCCACAAAGCUUGAAAGCAUCUUCGGAUGCAGAGGCGGCAGCCUUCGGUGGCGCGAUAGCGCCAACGUUCUCAACUAUGACACGCAAAACGCGUGCUCCGUUGAAUGGAGUUUAUCAUG | -3.27 |
| GGAUCUUCUCGAUCUAACAAAAAAGUCAAAUCUGCCACAAAGCUUGAGAGCAUCUUCGGAUGCAGAGGCGGCAGCCUUCAGUGGCGCGAUAGCGCCACCGGUCUCAACUAUGACACGCAAAACGCGUGCUCCGUUGAAUGGAGUUUAUCAUG | -3.73 |
| GGAUCUUCUCGAUCUAACAAAAAAGUCAAAUCUGCCACAAAGCUUGAGAGCAUCUUCGGAUGCAGAGGCGGCAGCCUUCGGUUGCGCGAUAGCGGCAACGUUCUAAACUAUGACACGCAAAACGCGUGCUCCGUUGAAUGAAGUUCAUCACG | ≤ -4.2 |
| GGAUCUUCUCGAUCUAACAAAAAAGUCAAAUCUGCCACAAAGCUUGAGAGCAUCUUCGGAUGCAGAGGCGGCAGCCUUCGAUGGCGCGAUAGCGCCAACGUUCUCAACUAUGACACGCAAAACGCGUGCUCCGUUGAAUGGAGUUUAUCAUG | -1.66 |
| GGAUCUUCUCGAUCUAACAAAAAAGUCAAAUCUGCCACAAAGCUUUAGAGCAUCUUCAGAUGCAGAGGCGGCUGCCUUCGGUGGGGCGAUAGCGCCAACGUUCUCAACUAGGACACGCAAAACGCGUGCUCCGUUGAAUGGAGUUUAUCUUG | ≤ -4.2 |
| GGAUCUUCUCGAUCUAACAAAAAAGUCAAAUCUGCCACAAAUCUUGAGAGCAUCUUCGGAUGCAGAGGCGGCAGCCUUCGGUGGCGCGAUAGCGCCAACGUUCUCAACUAUGACACGCAAAACGCGUGCUCCGUUGAAUGGAGUUUAUCAUG | ≤ -4.2 |
| GGAUCUUCUCGAUCUAACAAAAAAGUCAAAUCUGCCACAAAGCUUGAGAACAUCUUCGGAUGCGGAGGCGGCAGCCUUCGGUGGCGCGAUAGCGCCAACGGUCUCAACUAUGACACGCAAAACGCGUGCUCCGUUGAAUGAAGUUUAUCAUG | ≤ -4.2 |
| GGAUCUUCUCGAUCUAACAAAAAAGUCAAAUCUGCCACAAAGCUUGAGAGCAUCUUCGGAUUCAGAGGCGGCAGCCUUCGGUGGCGCGAUAGCGCCAACGUUCUCAACUAUGACACGCAAAACGCGUGCUCCGUAGAAUGGAGUUUAUCAUG | -2.77 |
| GGAUCUUCUCGAUCUAACAAAAAAGUCAAAUCUGCCACAAAGCUUGAGAGCAUCUUCGAAUGCAGAGGCGGCAGCCUUCGGUAGCGGGAUAGGGCCGACGUUCCCAACUAUGACACGCAAAACGCGUGCUCCGUUGAACGGAGUUUAUCAUG | ≤ -4.2 |
| GGAUCUUCUCGAUCUAACAAAAAAGUCAAAUCUGCCACAAAGCUUUAGAGCAUCUUCGGAUGCAGAGGCGGCAGCCUUCGGUGGCGCGAUAGCGCCAACGUUCUCAACUAUGACACGCAAAACGCGUGCUCCGUUGAAUGGAGUUUAUCAUG | -3.87 |
| GGAUCUUCUCGAUCUAACAAAAAAGUCAAAUCUGCCACAAAGCUUGACUGCAUCUUCGGAUGCCGAGGCGGCAGCCUUCGGUGGCGCGAGAGCGCCAACGUUCUCAACUAUGACACGCAAAACGCGUGCUCCGUUGGAUGGAGUUUAUCAUG | -4.11 |
| GGAUCUUCUCGAUCUAACAAAAAAGUCAAAUCUGCCACAAAGCUUUUGAGCAUCUUCGGAUGCAGAGGCGGCACCCUUGGGUGGCGCGAUAUCGCCAACGUUCUCAACUAUGACACGCAAAACGCGUGCUCCGUUGAAUAGAGUUUAUCAUG | ≤ -4.2 |
| GGAUCUUCUCGAUCUAACAAAAAAGUCAAAUCUGCCACAAAGCUUGAGAGCAUCUUCGGAUGCAGAGCCGGCAGCCUUCGGUGGCUCGAUAGCGCCAACGUUGUCAACUAUGACCCGCAAAACGCGUGCUCCGUUGAAUGGAGUUUAUCAUG | ≤ -4.2 |
